According to the supplement of paper PMC7125110:
± gives the standard error. For part of these data: This sample holds only a part of the variants without activity.

B1: glmS ribozyme (parent)
chain: AUAAAAGCGCCAGAACUACAGAAAUGUAGUUGACGAGGAGGAGGUUUAUCGAAUUUUCGGCGGAUGCCUCCAAA

Experiments:
Settings in all cases: with glucosamine-6-phosphate
glucosamine-6-phosphate [1] = variants of: B1; test: kcat; higher = faster cleavage; RNA array
Outline: (§1)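 Tiles of sequenced MiSeq chips were imaged over ~14 h at 37 °C. On them, barcoded ribozyme variants had been transcribed in situ by E. coli RNA polymerase and were tracked via a hybridised Cy3 probe while glucosamine-6-phosphate (40 μM to 10 mM) in HEPES/KCl/Mg(OAc)2 buffer flowed in. Per-tile medians, normalised to baseline and to non-cleaving reference variants, were fit to one- or two-exponential decays for kobs, and weighted Michaelis–Menten fits gave kcat and KM.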

glucosamine-6-phosphate [2] = variants of: B1; test: KM; higher = weaker cofactor use; RNA array
Outline: as §1

glucosamine-6-phosphate [3] = variants of: B1; test: self-cleavage kobs at 40 uM GlcN6P; higher = faster cleavage; RNA array
Outline: as §1

glucosamine-6-phosphate [4] = variants of: B1; test: self-cleavage kobs at 640 uM GlcN6P; higher = faster cleavage; RNA array
Outline: as §1

glucosamine-6-phosphate [5] = variants of: B1; test: self-cleavage kobs at 2500 uM GlcN6P; higher = faster cleavage; RNA array
Outline: as §1

glucosamine-6-phosphate [6] = variants of: B1; test: self-cleavage kobs at 10000 uM GlcN6P; higher = faster cleavage; RNA array
Outline: as §1

glucosamine-6-phosphate [7] = variants of: B1; test: self-cleavage kobs at 160 uM GlcN6P; higher = faster cleavage; RNA array
Outline: as §1

Variant | kcat (glucosamine-6-phosphate [1]) | KM (glucosamine-6-phosphate [2]) | self-cleavage kobs at 40 uM GlcN6P (glucosamine-6-phosphate [3]) | self-cleavage kobs at 640 uM GlcN6P (glucosamine-6-phosphate [4]) | self-cleavage kobs at 2500 uM GlcN6P (glucosamine-6-phosphate [5]) | self-cleavage kobs at 10000 uM GlcN6P (glucosamine-6-phosphate [6]) | self-cleavage kobs at 160 uM GlcN6P (glucosamine-6-phosphate [7])
G43U | 4.89e-05 ± 4.3e-06 s⁻¹ | 986 ± 410 µM | < 1e-05 s⁻¹ | 1.42e-05 ± 2e-06 s⁻¹ | 3.98e-05 ± 1.6e-06 s⁻¹ | 4.31e-05 ± 1.2e-06 s⁻¹ | 
C50A U54G U55C | 1.47e-05 ± 3.9e-06 s⁻¹ |  |  |  |  |  | 
G59U G66U | < 1e-05 s⁻¹ |  | < 1e-05 s⁻¹ |  |  | < 1e-05 s⁻¹ | 
G43A A53G | 8.84e-05 ± 2.5e-05 s⁻¹ |  |  |  | 0.000132 ± 2.8e-05 s⁻¹ | 7.56e-05 ± 8.5e-06 s⁻¹ | 
A14G G40A G41U G66A | 0.000815 ± 0.00014 s⁻¹ | 2850 ± 980 µM |  | 0.000149 ± 3.6e-05 s⁻¹ | 0.000356 ± 9.3e-05 s⁻¹ | 0.000645 ± 0.0001 s⁻¹ | 
C10A U57C C61U | < 1e-05 s⁻¹ |  |  |  |  | < 1e-05 s⁻¹ | 
C67U C70U | 0.000418 ± 1.7e-05 s⁻¹ | 1370 ± 110 µM |  | 0.000132 ± 9.5e-06 s⁻¹ | 0.000264 ± 2e-05 s⁻¹ | 0.000377 ± 3e-05 s⁻¹ | 4.68e-05 ± 6.2e-06 s⁻¹
G59A U69C | 5.07e-05 ± 2.8e-06 s⁻¹ | 943 ± 240 µM |  |  |  | 4.7e-05 ± 1e-05 s⁻¹ | 
G37A C71U | 0.00282 ± 0.00026 s⁻¹ | 2690 ± 370 µM | 4.51e-05 ± 4.2e-06 s⁻¹ | 0.000478 ± 4.3e-05 s⁻¹ | 0.0015 ± 0.00028 s⁻¹ | 0.00225 ± 0.00014 s⁻¹ | 0.000172 ± 1.9e-05 s⁻¹
U31C C71A | 0.000686 ± 0.00019 s⁻¹ | 1470 ± 630 µM | 3.6e-05 ± 1.1e-05 s⁻¹ | 0.00018 ± 1.9e-05 s⁻¹ | 0.000669 ± 9.6e-05 s⁻¹ | 0.00057 ± 7.8e-05 s⁻¹ | 7.42e-05 ± 8.6e-06 s⁻¹
U46C A53G | 0.00366 ± 0.0005 s⁻¹ | 1430 ± 280 µM | 8.69e-05 ± 1.5e-05 s⁻¹ | 0.00119 ± 0.00015 s⁻¹ | 0.0025 ± 0.00035 s⁻¹ | 0.00272 ± 0.00067 s⁻¹ | 0.000402 ± 6.7e-05 s⁻¹
U69C | 0.00361 ± 0.00043 s⁻¹ | 201 ± 40 µM | 0.000631 ± 3.9e-05 s⁻¹ | 0.00268 ± 0.0002 s⁻¹ | 0.00383 ± 0.00039 s⁻¹ |  | 0.00145 ± 0.00011 s⁻¹
G32A U69A | 9.02e-05 ± 2.8e-05 s⁻¹ |  |  |  | 9.73e-05 ± 1.8e-05 s⁻¹ | 7.45e-05 ± 1.1e-05 s⁻¹ | 
A48C C70U | 0.000564 ± 5.5e-05 s⁻¹ | 3470 ± 540 µM |  | 8.59e-05 ± 1.5e-05 s⁻¹ | 0.000254 ± 3.9e-05 s⁻¹ | 0.000401 ± 7.4e-05 s⁻¹ | 
A52G G60U | < 1e-05 s⁻¹ |  |  | < 1e-05 s⁻¹ |  |  | < 1e-05 s⁻¹
G29U U45C | 0.000348 ± 1.1e-05 s⁻¹ | 2130 ± 200 µM |  | 7.89e-05 ± 3.4e-05 s⁻¹ | 0.000204 ± 0.0001 s⁻¹ | 0.000286 ± 4.9e-05 s⁻¹ | 
